Test results reported in PMC4783868 (Nature, 2015).

Target: T1, PB1 subunit of the influenza C/Johannesburg/1/1966 virus polymerase (FluPolC) (influenza C/Johannesburg/1/1966 virus, UniProt Q9IMP4)
T1 sequence: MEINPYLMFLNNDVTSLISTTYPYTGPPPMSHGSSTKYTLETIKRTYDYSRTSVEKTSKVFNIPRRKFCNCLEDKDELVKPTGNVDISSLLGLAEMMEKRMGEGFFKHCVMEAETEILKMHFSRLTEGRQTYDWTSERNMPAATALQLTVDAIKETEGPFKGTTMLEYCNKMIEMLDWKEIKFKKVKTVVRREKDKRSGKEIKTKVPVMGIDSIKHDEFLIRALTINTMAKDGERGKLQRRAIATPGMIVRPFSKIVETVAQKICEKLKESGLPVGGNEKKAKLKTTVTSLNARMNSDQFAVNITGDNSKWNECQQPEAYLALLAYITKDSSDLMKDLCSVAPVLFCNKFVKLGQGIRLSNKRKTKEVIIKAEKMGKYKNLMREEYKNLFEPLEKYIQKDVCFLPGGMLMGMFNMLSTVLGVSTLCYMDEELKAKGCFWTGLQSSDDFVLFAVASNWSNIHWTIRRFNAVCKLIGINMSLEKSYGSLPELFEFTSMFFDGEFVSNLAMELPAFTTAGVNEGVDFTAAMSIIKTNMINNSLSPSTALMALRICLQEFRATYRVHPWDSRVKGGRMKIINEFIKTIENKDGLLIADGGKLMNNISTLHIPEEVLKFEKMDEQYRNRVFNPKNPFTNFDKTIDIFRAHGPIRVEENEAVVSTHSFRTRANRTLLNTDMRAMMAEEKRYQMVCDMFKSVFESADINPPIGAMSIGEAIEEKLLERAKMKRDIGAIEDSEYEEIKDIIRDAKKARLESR
Experiment: crystal structure

B1: P3 subunit of the influenza C/Johannesburg/1/1966 virus polymerase (FluPolC) (natural protein)
chain: MSKTFAEIAEAFLEPEAVRIAKEAVEEYGDHERKIIQIGIHFQVCCMFCDEYLSTNGSDRFVLIEGRKRGTAVSLQNELCKSYDLEPLPFLCDIFDREEKQFVEIGITRKADDSYFQSKFGKLGNSCKIFVFSYDGRLDKNCEGPMEEQKLRIFSFLATAADFLRKENMFNEIFLPDNEETIIEMKKGKTFLELRDESVPLPFQTYEQMKDYCEKFKGNPRELASKVSQMQSNIKLPIKHYEQNKFRQIRLPKGPMAPYTHKFLMEEAWMFTKISDPERSRAGEILIDFFKKGNLSAIRPKDKPLQGKYPIHYKNLWNQIKAAIADRTMVINENDHSEFLGGIGRASKKIPEISLTQDVITTEGLKQSENKLPEPRSFPRWFNAEWMWAIKDSDLTGWVPMAEYPPADNELEDYAEHLNKTMEGVLQGTNCAREMGKCILTVGALMTECRLFPGKIKVVPIYARSKERKSMQEGLPVPSEMDCLFGICVKSKSHLNKDDGMYTIITFEFSIREPNLEKHQKYTVFEAGHTTVRMKKGESVIGREVPLYLYCRTTALSKIKNDWLSKARRCFITTMDTVETICLRESAKAEENLVEKTLNEKQMWIGKKNGELIAQPLREALRVQLVQQFYFCIYNDSQLEGFCNEQKKILMALEGDKKNKSSFGFNPEGLLEKIEECLINNPMCLFMAQRLNELVIEASKRGAKFFKTD
- binding result: binds
